Common to all, as to conditions: both partners purified
Assay [1] addresses T1, yeast RNA polymerase II, purified (CBP tag on RPB3) (yeast, UniProt P04050 1-1733; P08518 1-1224; P16370 1-318; P20433 1-221; P20434 1-215; P20435 …).
T1 construct: RPB1, largest subunit of yeast pol II, wild type with its CTD (26 heptapeptide repeats); RPB2 subunit of yeast pol II; RPB3 subunit of yeast pol II, TAP-tagged (CBP-TEV-protein A); CBP is left after TEV cleavage; RPB4 subunit of yeast pol II; RPB5 subunit of yeast pol II; RPB6 subunit of yeast pol II; RPB7 subunit of yeast pol II; RPB8 subunit of yeast pol II; RPB9 subunit of yeast pol II; RPB10 …
The assay can be described thus: cross-linking; purified pol II and Prp40 FF4-6 at ~1:1.5 molar ratio in 20 mM HEPES pH 7.5, 150 mM NaCl, 1 mM MgCl2, 0.5 mM TCEP; 1 mM DSSO or 2 mM SDA, 1 h, 4 °C; LC-MS/MS.

In assay [2] the target is T1, yeast RNA polymerase II, purified (CBP …). The experiment in a line: pull-down; GST fusion proteins on glutathione-Sepharose incubated with 1 μM purified pol II, 1.5 h, 4 °C; cleaved off with PreScission protease; Western blot with 8WG16 (RPB1) and anti-CBP. A general note: Immunoblotting shows a protein as a band on a membrane.
Assay [3] has the same target. The assay can be described thus: pull-down; protein A-tagged protein on IgG resin incubated with 0.4 μM purified pol II in 20 mM Tris–HCl pH 8.0, 150 mM NaCl, 0.5 mM DTT, 1.5 h, 4 °C; Western blot with 8WG16 (RPB1) and anti-CBP (RPB3-CBP).

B1: Prp40 FF4-6 (351–552) (domain or fragment, S. cerevisiae, UniProt P33203 351-552, looked up)
chain: NYTRDRIARDNFKSLLREVPIKIKANTRWSDIYPHIKSDPRFLHMLGRNGSSCLDLFLDFVDEQRMYIFAQRSIAQQTLIDQNFEWNDADSDEITKQNIEKVLENDRKFDKVDKEDISLIVDGLIKQRNEKIQQKLQNERRILEQKKHYFWLLLQRTYTKTGKPKPSTWDLASKELGESLEYKALGDEDNIRRQIFEDFKPE
notes: yeast Prp40 residues 351–552 (FF4 to FF6); also called Prp40 FF4-6 protein; source: E. coli (pGEX-6p-1), purified
As for B1, the binding result in assay [1] was “binds”.

B2: GST-fused Prp40 FF4 (351–415) (domain or fragment, S. cerevisiae, UniProt P33203 351-415, looked up)
chain: NYTRDRIARDNFKSLLREVPIKIKANTRWSDIYPHIKSDPRFLHMLGRNGSSCLDLFLDFVDEQR
notes: yeast Prp40 residues 351–415 (FF4); also called GST-FF4; source: E. coli (pGEX-6p-1), purified as GST fusion protein; not shown: GST, N-terminal, kept
B2: in assay [2], the binding result was “binds”.

B3: GST-fused Prp40 FF3 (270–335) (domain or fragment, S. cerevisiae, UniProt P33203 270-335, looked up)
chain: KTQALKELREYLNGIITTSSSETFITWQQLLNHYVFDKSKRYMANRHFKVLTHEDVLNEYLKIVNT
notes: yeast Prp40 residues 270–335 (FF3); also called GST-FF3; source: E. coli (pGEX-6p-1), purified as GST fusion protein; not shown: GST, N-terminal, kept
Turning to B3, in assay [2], the binding result is “binds”.

B4: GST-fused Prp40 FF6 ext (488–583) (domain or fragment, S. cerevisiae, UniProt P33203 488-583, looked up)
chain: NERRILEQKKHYFWLLLQRTYTKTGKPKPSTWDLASKELGESLEYKALGDEDNIRRQIFEDFKPESSAPTAESATANLTLTASKKRHLTPAVELDY
notes: yeast Prp40 residues 488–583 (FF6 and the extension downstream of it, to the C-terminus); also called 6 extension; FF6 extension; source: E. coli (pGEX-6p-1), purified as GST fusion protein; not shown: GST, N-terminal, kept
As for B4, in assay [2], the binding result is given as “binds”.

B5: protein A-tagged Prp40 (full length) (natural protein, S. cerevisiae, UniProt P33203 1-583, looked up)
chain: MSIWKEAKDASGRIYYYNTLTKKSTWEKPKELISQEELLLRENGWKAAKTADGKVYYYNPTTRETSWTIPAFEKKVEPIAEQKHDTVSHAQVNGNRIALTAGEKQEPGRTINEEESQYANNSKLLNVRRRTKEEAEKEFITMLKENQVDSTWSFSRIISELGTRDPRYWMVDDDPLWKKEMFEKYLSNRSADQLLKEHNETSKFKEAFQKMLQNNSHIKYYTRWPTAKRLIADEPIYKHSVVNEKTKRQTFQDYIDTLIDTQKESKKKLKTQALKELREYLNGIITTSSSETFITWQQLLNHYVFDKSKRYMANRHFKVLTHEDVLNEYLKIVNTIENDLQNKLNELRLRNYTRDRIARDNFKSLLREVPIKIKANTRWSDIYPHIKSDPRFLHMLGRNGSSCLDLFLDFVDEQRMYIFAQRSIAQQTLIDQNFEWNDADSDEITKQNIEKVLENDRKFDKVDKEDISLIVDGLIKQRNEKIQQKLQNERRILEQKKHYFWLLLQRTYTKTGKPKPSTWDLASKELGESLEYKALGDEDNIRRQIFEDFKPESSAPTAESATANLTLTASKKRHLTPAVELDY
notes: yeast Prp40, full length, 583 residues; A TEV site lies between protein A and Prp40; also called ProtA-Prp40; source: yeast BCY123 (pRS414/GPD-protA-TEV-PRP40), purified on IgG resin; not shown: protein A, N-terminal, kept
For B5, in assay [3], the binding result was “binds”.

B6: GST-fused Prp40 FF1 (134–189) (domain or fragment, S. cerevisiae, UniProt P33203 134-189, looked up)
chain: EAEKEFITMLKENQVDSTWSFSRIISELGTRDPRYWMVDDDPLWKKEMFEKYLSNR
notes: yeast Prp40 residues 134–189 (FF1); also called GST-FF1; source: E. coli (pGEX-6p-1), purified as GST fusion protein; not shown: GST, N-terminal, kept
Turning to B6, the binding result in assay [2] is reported as “binds”.

B7: GST-fused Prp40 FF2 (204–269) (domain or fragment, S. cerevisiae, UniProt P33203 204-269, looked up)
chain: FKEAFQKMLQNNSHIKYYTRWPTAKRLIADEPIYKHSVVNEKTKRQTFQDYIDTLIDTQKESKKKL
notes: yeast Prp40 residues 204–269 (FF2); also called GST-FF2; source: E. coli (pGEX-6p-1), purified as GST fusion protein; not shown: GST, N-terminal, kept
Take B7: the binding result in assay [2] was “binds”.

Source of the values: publication PMC13250567, “U1 snRNP and RNA polymerase II interaction is predominantly mediated by Prp40 rather than U1-70K in yeast” (Nucleic Acids Research, 2026).
